According to PMC4053179:

Columns and labels:
[1] = target: recombinant p38α MAP kinase (mitogen activated protein kinase) (UniProt Q16539)
[2] = target: recombinant p38α MAP kinase (mitogen activated protein kinase) (UniProt Q16539); test: SPR; His-tagged p38α immobilised on an NTA sensor chip via Ni2+/NTA chelation, 25°C, BIAcore-2000; C-25 injected at 4.6 × 10^−6, 9.2 × 10^−6 and 13.8 × 10^−6 M; BIAevaluation 3.0

Sequence of UniProt Q16539 (Q16539 whole entry): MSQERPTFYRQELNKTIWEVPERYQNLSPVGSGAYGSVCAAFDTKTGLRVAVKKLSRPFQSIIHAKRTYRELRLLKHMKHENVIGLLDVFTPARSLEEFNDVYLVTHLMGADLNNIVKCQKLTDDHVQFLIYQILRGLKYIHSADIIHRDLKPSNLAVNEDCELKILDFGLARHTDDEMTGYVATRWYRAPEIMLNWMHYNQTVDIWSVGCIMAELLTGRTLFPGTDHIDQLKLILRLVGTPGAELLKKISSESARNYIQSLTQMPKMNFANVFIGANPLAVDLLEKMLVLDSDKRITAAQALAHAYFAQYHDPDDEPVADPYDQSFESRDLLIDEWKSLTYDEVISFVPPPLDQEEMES

IC50 of inhibition of the phosphorylation of plate-coated ATF-2 by p38α (ELISA kinase assay, 100 μM ATP, C-25 at 1-25 μM, anti-phospho ATF-2 detection) [1]: 7.9 µM
Kd [2]: 0.269 µM
Substance: C-25 protein from Cicer arietinum (natural protein)
